Biological target: T1, His-tagged, wild-type DNA polymerase IV (Pol IV) (Escherichia coli, UniProt Q47155 1-351)
T1 sequence (looked up): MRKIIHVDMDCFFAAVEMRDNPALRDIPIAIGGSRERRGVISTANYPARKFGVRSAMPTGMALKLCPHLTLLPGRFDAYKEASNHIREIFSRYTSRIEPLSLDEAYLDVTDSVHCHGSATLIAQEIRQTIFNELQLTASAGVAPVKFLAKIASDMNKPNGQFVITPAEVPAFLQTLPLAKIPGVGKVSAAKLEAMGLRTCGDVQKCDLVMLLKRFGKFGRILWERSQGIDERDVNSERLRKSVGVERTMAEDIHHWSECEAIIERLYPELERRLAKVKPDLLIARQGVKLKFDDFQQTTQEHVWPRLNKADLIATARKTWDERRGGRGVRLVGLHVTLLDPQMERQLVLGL
Assay: pull-down

binding result: binds
Binder: WMDFDDDIPF [SSB-Ct peptide (Trp–Met–Asp–Phe–Asp–Asp–Asp–Ile–Pro–Phe)]
